Test results reported in patent US6083917.
Where “and” joins values, the source holds several entries; their conditions need not be identical. Equal entries are not always repeated.

target: rat brain protein farnesyltransferase (rat)

| Concentration for 50% Inhibition (farnesylation of p21^H-ras) | Substance |
| --- | --- |
| 3 µM | CVLS (peptide) |
| 0.15 µM | CIIM (peptide) |
| 30 µM | CTVA (peptide) |
| 5 µM | CVIA (peptide) |
| 0.35 µM | CCVQ (peptide) |
| 0.35 µM | CIIC (peptide) |
| 1 µM | CVIS (peptide) |
| 0.15 µM | CVVM (peptide) |
| 0.15 µM | CVLM (peptide) |
| 17 µM | CLIL (peptide) |
| 11 µM | CVIL (peptide) |
| 22 µM | CLLL (peptide) |
| 0.35 µM | CIIS (peptide) |
| 100 µM | CAIL (peptide) |
| 0.2 µM | CSIM (peptide) |
| 0.15 µM | CAIM (peptide) |
| > 100 µM | CIKS (peptide) |
| 0.15 µM | CVIM (peptide) |

target: rat brain protein farnesyltransferase (rat); remark: another data set of the same source

| Concentration for 50% Inhibition of Farnesylation of p21^H-ras | Substance |
| --- | --- |
| 2.4 µM | N-AcECVFM (peptide) |
| 0.06 µM and 0.032 µM and 0.09 µM | CVFM (peptide) |
| 0.44 µM | CCVFM (peptide) |
| 0.21 µM | N-CholylCVFM (peptide) |
| 0.11 µM | N-AcCCVFM (peptide) |
| 0.2 µM | N-AcPCVFM (peptide) |
| 1.1 µM | KCVFM (peptide) |
| 0.25 µM | N-AcCVFM (peptide) |
| 1.9 µM | N-AcDCVFM (peptide) |
| 0.32 µM | CVWM (peptide) |
| 0.15 µM | N-AcCVIM (peptide) |
| 0.3 µM | N-AcKCVFM (peptide) |
| 3.7 µM | N-AcCVWM (peptide) |
| 0.35 µM | N-Octanoyl-CVFM (peptide) |
| 0.23 µM | N-AcSCVFM (peptide) |
| 0.43 µM | N-AcGCVFM (peptide) |
| 0.15 µM | CVIM (peptide) |
| 1.4 µM | N-AcMCVFM (peptide) |
| 0.24 µM | N-AcHCVFM (peptide) |

target: rat brain protein farnesyltransferase (rat); remark: another data set of the same source

| affinity for the enzyme as estimated by the concentration required for 50% inhibition | Substance |
| --- | --- |
| > 30 fold | CVIA (peptide) |
| > 30 fold | CVIM with lysine at the A2 position (peptide) |
| > 30 fold | CVAM (peptide) |
| > 30 fold | CVIM with lysine at the X position (peptide) |

target: rat brain protein farnesyltransferase (rat); remark: another data set of the same source

| affinity for the enzyme relative to CVIM (from 50% inhibition) | half-maximal inhibition of farnesylation of p21^H-ras | Substance |
| --- | --- | --- |
| 6 fold | 25 nM | CVFM (peptide) |

target: rat brain protein farnesyltransferase (rat); remark: another data set of the same source

| affinity for the enzyme (from 50% inhibition) | Concentration for 50% Inhibition of Farnesylation of p21^H-ras | Substance |
| --- | --- | --- |
| > 50 fold |  | CVIM with lysine at the A2 position (peptide) |
|  | 8 µM | CVIM with glycine at the A2 position (peptide) |
|  | 1.5 µM | CEIM (peptide) |
| > 50 fold |  | CVIM with glutamic acid at the A2 position (peptide) |
|  | 4 µM | CGIM (peptide) |
|  | 0.7 µM | CKIM (peptide) |
|  | 8 µM | CPIM (peptide) |
|  | 20 µM | CVPM (peptide) |

target: rat brain protein farnesyltransferase (rat); remark: another data set of the same source

| Concentration for 50% Inhibition of Farnesylation of p21^H-ras | Substance |
| --- | --- |
| 0.5 µM | CVIF (peptide) |
| > 40 µM | CVIM with glycine at the X position (peptide) |
| > 40 µM | CVIM with glutamic acid at the X position (peptide) |
| > 40 µM | CVIM with lysine at the X position (peptide) |

target: rat brain protein farnesyltransferase (rat); remark: another data set of the same source

| Concentration for 50% Inhibition of Farnesylation of p21^H-ras | Substance |
| --- | --- |
| 12 µM | CVIL (peptide) |

target: rat brain protein farnesyltransferase (rat); remark: another data set of the same source

| concentration giving 50% inhibition of farnesylation of p21^H-ras (FIG. 23A) | Substance |
| --- | --- |
| 0.07 µM | CVFM (peptide) |
| 0.27 µM | N-AcCVFM (peptide) |
